According to the supplement of paper PMC12764529:
± gives the half width of the 95% confidence interval.

Assays:
[1] = folding stability dG unfold (combined trypsin and chymotrypsin); higher = more stable
Outline: (§1)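 Mini-proteins designed to be under 80 residues and free of cysteine were carried in a PA-tagged cDNA display construct and digested with trypsin and with chymotrypsin. Each protease was applied at 11 threefold-diluted concentrations, alongside a no-protease condition, before sequencing. K50 came from Bayesian fitting of the sequencing counts, and unfolding free energy was obtained by comparing it with a sequence-predicted unfolded-state K50 and a shared folded-state K50, for each protease separately or for both together. Designs were retained only if their AlphaFold2 dimer inter-PAE exceeded 15.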

[2] = folding stability dG unfold from chymotrypsin proteolysis; higher = more stable
Outline: as §1

[3] = folding stability dG unfold from trypsin proteolysis; higher = more stable
Outline: as §1

| Sequence | folding stability dG unfold [1] [kcal/mol] | folding stability dG unfold [2] [kcal/mol] | folding stability dG unfold [3] [kcal/mol] |
| --- | --- | --- | --- |
| SAGGSAGGSMVPGKLLVTITDPNNGLTTTLDLPLEVKTEEDIEAEVQKIKEENPGKKVSVKLLSAGGSAGGS [r12_65_JUSTAS] | 1.69 ± 0.054 | 1.687 ± 0.013 | 1.65 ± 0.057 |
| SAGGSDSLVTLERVEVTELEEFEEDDRPFLVKRTYTIEKVVTTDPKTGKVTTETTVTSKEEVIPPELNSAGG [r13_810_JUSTAS] | 0.874 ± 0.084 | 0.801 ± 0.18 | 0.807 ± 0.031 |
| SMKTVTLNFPSLSEEEVRALAEELEATGRYRVEKIDSSTPNIKVTVLEEPPEPRPPPPPALVRDADARAASA [r9_830_JUSTAS] | 1.4 ± 0.12 | 1.83 ± 0.12 | 1.08 ± 0.088 |
| SAGGSAKITLWIWMPPGNPDKMAEEIADYLAERHGWTVKIKDVQIERDPEDDQVWIPVKIEIQPPPSAGGSA [r15_70_TrROS] | 1.91 ± 0.39 | 1.39 ± 0.31 | 1.98 ± 0.14 |
| SMPLIIIAKKNKDGTGTILIKKGDKVIEIEFEKNIKPEELKKKAIETALTLKKKTEELGIPIEIKEIIFESA [r9_751_TrMRF] | 2.1 ± 0.091 | 2.23 ± 0.077 | 1.77 ± 0.082 |
| SAGGSAGGSAGGSDNKAILGDVPIKFYDKNGKPVITAKIGYFPDGRVVIYFPDGSKIEASAGGSAGGSAGGS [r10_972_TrMRF] | 1.25 ± 0.038 | 1.04 ± 0.023 | 1.48 ± 0.04 |
| SAGGRIKDIEPIPPNDPPGQKLTIKFPDGGPIEIPMEKEPDENGPYYYKFKLQVNNGEIEVMFRIPNSAGGS [r8_360_TrROS] | 5.18 ± 0.32 | 5.47 ± 0.16 | 3.73 ± 0.25 |
| SAGGDPGKPTSVTLTLTVPKDKKTVKLEVTFNPETGEAVITFPGSSKTVTLPFGSLPDVLDAAKKLLYSAGG [r13_439_TrMRF] | 2.49 ± 0.07 | 2.65 ± 0.035 | 2.31 ± 0.063 |
| SAGGSAGGSAAVPVSETPLGTLPDGRRVRLRRYRDPDGNLYTFLEVEPLPRPLSPADLEKAAASAGGSAGGS [r12_775_TrMRF] | 1.68 ± 0.1 | 2.06 ± 0.12 | 0.492 ± 0.19 |
| SAGGSAGGSAGGGMPSYVTKTTTTTVKITNTTTGGNSTTTTTSTVTVTTTTLLPPGLLASAGGSAGGSAGGS [r10_300_JUSTAS] | 0.835 ± 0.074 | 1.2 ± 0.028 | -0.147 ± 0.052 |
| SAGDALKDLAPDVEITPSSFPFAFPPSRPVLAASIVAHPDNTITVFLTEVHPDGGARVLVYTLHLSDKSAGG [r19_125_TrMRF] | 3.05 ± 0.14 | 3.2 ± 0.051 | 2.78 ± 0.12 |
| SAGGSAGGSAGGMEYSISNVTTETFPEGNKTVTVETYTFDDGGTITVTKENGKVLEVNPKSAGGSAGGSAGG [r7_552_JUSTAS] | 0.135 ± 0.11 | 0.586 ± 0.062 | -1.57 ± 0.56 |
| SAGGMITTSTLSDGTTVVTIRVPGSPEEADAVAEEVREALLAAGYRTVEVSREPVEDGWVVTITTVSSAGGS [r8_113_JUSTAS] | 3.711 ± 0.031 | 3.888 ± 0.029 | 3.28 ± 0.063 |
| SAGGMEVKEISIPVPENLTPEQAVEKVKELFEKHPELEHVLVYFELPNGKPLVVEVDKNGKITKVEEKSAGG [r13_690_TrMRF] | 1.88 ± 0.095 | 2.28 ± 0.048 | 0.889 ± 0.041 |
| SMKEGIEAAIDELKEALEKGEGEVRVVLRFEGFVLEITIKPKGYKIEDIEIEPLPDDIPFIREREEVPPESA [r9_308_TrMRF] | 1.52 ± 0.24 | 1.58 ± 0.19 | 1.23 ± 0.051 |
| SAGGKLKIKIGDKEYTVESVEIIEERPLPGGGPVYLIRLKFKDGPALIEIPPNIPSSISNNGTLVAGSAGGS [r16_638_TrMRF] | 1.75 ± 0.095 | 1.95 ± 0.058 | 1.36 ± 0.04 |
| SALKISVTVDPDGPTATATLELYNPETGKPTTLTATIHRLPDGSYLVTIHFPSNNKTITFTVPEDGVITLSA [r9_1220_TrMRF] | 3.03 ± 0.12 | 3.48 ± 0.038 | 2.38 ± 0.09 |
| SMPPGERYRMTMKFPDGKKITLEMNPGGWWRIKVENKNGKPQHQQPIPPDNPQELAENFGIDKVTDVEPVSA [r9_1107_TrROS] | 2.05 ± 0.17 | 2.02 ± 0.2 | 2.01 ± 0.095 |
| SAAVPSDLTLTTLETKKEKFDDNEYTVVKSVLLRPGAPGATVTEYTTVYKGDKVVETKPSERTVSPALLSAG [r14_651_JUSTAS] | -0.0404 ± 0.15 | 0.209 ± 0.13 | -0.897 ± 0.27 |
| SAGGSAGGSMFKVIVESEDPEKALEEAKALIEKIEEEGIGEIKKFEFLIVPKDIPEYKKLKEKSAGGSAGGS [r12_551_TrMRF] | -0.0656 ± 0.3 | 0.438 ± 0.18 | -0.306 ± 0.45 |
| SADIKIDDIETQENPDGYEWYMITINFPDPKKFKEKLKKHGVNPEWDPNDPDQVEIWFPREDIQEILKLSAG [r14_777_TrROS] | 0.665 ± 0.36 | 0.884 ± 0.28 | 0.328 ± 0.21 |
